# Tests used:
# [1] = molecular target: HLA-B*0801 (B8) (human); experiment: Luminex iBeads (#6), IVIg diluted 1:8
# [2] = molecular target: HLA-B*1516 (B63) (human); experiment: Luminex iBeads (#6), IVIg diluted 1:8
# [3] = molecular target: HLA-B*1301 (B13) (human); experiment: Luminex iBeads (#6), IVIg diluted 1:8
# [4] = molecular target: HLA-B*1510 (B71) (human); experiment: Luminex iBeads (#6), IVIg diluted 1:8
# [5] = molecular target: HLA-B*1402 (B65) (human); experiment: Luminex iBeads (#6), IVIg diluted 1:8
# [6] = molecular target: HLA-B*1801 (B18) (human); experiment: Luminex iBeads (#6), IVIg diluted 1:8
# [7] = molecular target: HLA-B*1512 (B76) (human); experiment: Luminex iBeads (#6), IVIg diluted 1:8
# [8] = molecular target: HLA-B*1511 (B75) (human); experiment: Luminex iBeads (#6), IVIg diluted 1:8
# [9] = molecular target: HLA-B*1502 (B75) (human); experiment: Luminex iBeads (#6), IVIg diluted 1:8
# [10] = molecular target: HLA-B*1503 (B72) (human); experiment: Luminex iBeads (#6), IVIg diluted 1:8
# [11] = molecular target: HLA-B*1501 (B62) (human); experiment: Luminex iBeads (#6), IVIg diluted 1:8
# [12] = molecular target: HLA-B*1302 (B13) (human); experiment: Luminex iBeads (#6), IVIg diluted 1:8
# [13] = molecular target: HLA-B*0702 (B7) (human); experiment: Luminex iBeads (#6), IVIg diluted 1:8
# [14] = molecular target: HLA-B*1402 (B65) (human); experiment: Luminex regular beads (#7), IVIg diluted 1:8
# [15] = molecular target: HLA-A*3201 (A32) single antigen on beads (human); experiment: Luminex iBeads (#6), IVIg 1:8
# [16] = molecular target: HLA-A*3101 (A31) single antigen on beads (human); experiment: Luminex iBeads (#6), IVIg 1:8
# [17] = molecular target: HLA-A*6601 (A66) single antigen on beads (human); experiment: Luminex iBeads (#6), IVIg 1:8
# [18] = molecular target: HLA-A*2902 (A29) single antigen on beads (human); experiment: Luminex iBeads (#6), IVIg 1:8
# [19] = molecular target: HLA-A*4301 (A43) single antigen on beads (human); experiment: Luminex iBeads (#6), IVIg 1:8
# [20] = molecular target: HLA-A*6801 (A68) single antigen on beads (human); experiment: Luminex iBeads (#6), IVIg 1:8
# [21] = molecular target: HLA-A*3301 (A33) single antigen on beads (human); experiment: Luminex iBeads (#6), IVIg 1:8
# [22] = molecular target: HLA-A*3601 (A36) single antigen on beads (human); experiment: Luminex iBeads (#6), IVIg 1:8
# [23] = molecular target: HLA-A*6602 (A66) single antigen on beads (human); experiment: Luminex iBeads (#6), IVIg 1:8
# [24] = molecular target: HLA-A*3002 (A30) single antigen on beads (human); experiment: Luminex iBeads (#6), IVIg 1:8
# [25] = molecular target: HLA-A*3303 (A33) single antigen on beads (human); experiment: Luminex iBeads (#6), IVIg 1:8
# [26] = molecular target: HLA-A*3001 (A30) single antigen on beads (human); experiment: Luminex iBeads (#6), IVIg 1:8
# [27] = molecular target: HLA-A*3401 (A34) single antigen on beads (human); experiment: Luminex iBeads (#6), IVIg 1:8
# [28] = molecular target: HLA-A*3402 (A34) single antigen on beads (human); experiment: Luminex iBeads (#6), IVIg 1:8
# [29] = molecular target: HLA-Cw*1502 (Cw15) (human); experiment: Luminex, iBeads (#6), 1:8
# [30] = molecular target: HLA-Cw*1402 (Cw14) (human); experiment: Luminex, iBeads (#6), 1:8
# [31] = molecular target: HLA-Cw*0702 (Cw7) (human); experiment: Luminex, iBeads (#6), 1:8
# [32] = molecular target: HLA-A*3101 (A31) single antigen on beads (human); experiment: Luminex, iBead vs regular bead, IVIg 1:8
# [33] = molecular target: HLA-A*6601 (A66) single antigen on beads (human); experiment: Luminex, iBead vs regular bead, IVIg 1:8
# [34] = molecular target: HLA-A*2902 (A29) single antigen on beads (human); experiment: Luminex, iBead vs regular bead, IVIg 1:8
# [35] = molecular target: HLA-A*6801 (A68) single antigen on beads (human); experiment: Luminex, iBead vs regular bead, IVIg 1:8
# [36] = molecular target: HLA-A*3301 (A33) single antigen on beads (human); experiment: Luminex, iBead vs regular bead, IVIg 1:8
# [37] = molecular target: HLA-A*3601 (A36) single antigen on beads (human); experiment: Luminex, iBead vs regular bead, IVIg 1:8
# [38] = molecular target: HLA-A*3001 (A30) single antigen on beads (human); experiment: Luminex, iBead vs regular bead, IVIg 1:8
# [39] = molecular target: HLA-A*3402 (A34) single antigen on beads (human); experiment: Luminex, iBead vs regular bead, IVIg 1:8
# [40] = molecular target: HLA-A*6802 (A68) single antigen on Luminex beads (human); experiment: Luminex single antigen bead assay, iBeads (#6), IVIg 1:8
# [41] = molecular target: HLA-A*6901 (A69) single antigen on Luminex beads (human); experiment: as above
# [42] = molecular target: HLA-A*8001 (A80) single antigen on Luminex beads (human); experiment: as above
# [43] = molecular target: HLA-B*1513 (B77) (human); experiment: Luminex iBeads (#6), IVIg diluted 1:8
# [44] = molecular target: Serum albumin on negative control beads (HSA/BSA) (human or bovine); experiment: Luminex iBeads (#6), IVIg diluted 1:8
# [45] = molecular target: HLA-A*3303 (A33) single antigen on beads (human); experiment: Luminex, iBead vs regular bead, IVIg 1:8
# [46] = molecular target: HLA-A*3401 (A34) single antigen on beads (human); experiment: Luminex, iBead vs regular bead, IVIg 1:8
substance,measurement,setting,value
"IVIg Octagam (Octapharma, Lachen, Switzerland) (antibody)",MFI,[1],114 MFI
same,MFI,[2],880 MFI
same,MFI,[3],52 MFI
same,MFI,[4],0 MFI
same,MFI,[5],0 MFI
same,MFI,[6],0 MFI
same,MFI,[7],1380 MFI
same,MFI,[8],1090 MFI
same,MFI,[9],0 MFI
same,MFI,[10],0 MFI
same,MFI,[11],0 MFI
same,MFI,[12],0 MFI
same,MFI,[13],0 MFI
same,MFI,[14],1460 MFI
same,MFI,[15],518 MFI
same,MFI,[16],0 MFI
same,MFI,[17],1020 MFI
same,MFI,[18],2270 MFI
same,MFI,[19],1690 MFI
same,MFI,[20],0 MFI
same,MFI,[21],1360 MFI
same,MFI,[22],572 MFI
same,MFI,[23],684 MFI
same,MFI,[24],369 MFI
same,MFI,[25],152 MFI
same,MFI,[26],510 MFI
same,MFI,[27],2060 MFI
same,MFI,[28],0 MFI
same,MFI,[29],255 MFI
same,MFI,[30],976 MFI
same,MFI,[31],1620 MFI
same,Difference % (iBead MFI vs regular bead MFI),[32],-100%
same,Difference % (iBead MFI vs regular bead MFI),[33],-40%
same,Difference % (iBead MFI vs regular bead MFI),[34],44%
same,Difference % (iBead MFI vs regular bead MFI),[35],0%
same,Difference % (iBead MFI vs regular bead MFI),[36],-9%
same,Difference % (iBead MFI vs regular bead MFI),[37],-26%
same,Difference % (iBead MFI vs regular bead MFI),[38],-45%
same,Difference % (iBead MFI vs regular bead MFI),[39],0%
same,MFI,[40],489 MFI
same,MFI,[41],814 MFI
same,MFI,[42],845 MFI
IVIg Gamunex-C Lot NKLK1 (antibody),MFI,[1],0 MFI
same,MFI,[43],841 MFI
same,MFI,[44],7800 MFI
same,MFI,[2],1210 MFI
same,MFI,[3],1030 MFI
same,MFI,[4],347 MFI
same,MFI,[5],0 MFI
same,MFI,[6],0 MFI
same,MFI,[7],1420 MFI
same,MFI,[8],1860 MFI
same,MFI,[9],91 MFI
same,MFI,[10],0 MFI
same,MFI,[11],53 MFI
same,MFI,[12],0 MFI
same,MFI,[13],0 MFI
same,MFI,[14],1440 MFI
same,MFI,[15],915 MFI
same,MFI,[16],0 MFI
same,MFI,[17],2330 MFI
same,MFI,[18],2890 MFI
same,MFI,[19],2720 MFI
same,MFI,[22],1550 MFI
same,MFI,[23],1860 MFI
same,MFI,[24],1410 MFI
same,MFI,[25],517 MFI
same,MFI,[26],1340 MFI
same,MFI,[27],3420 MFI
same,MFI,[28],0 MFI
same,MFI,[29],1200 MFI
same,MFI,[30],1070 MFI
same,MFI,[31],2400 MFI
same,Difference % (iBead MFI vs regular bead MFI),[32],0%
same,Difference % (iBead MFI vs regular bead MFI),[33],166%
same,Difference % (iBead MFI vs regular bead MFI),[34],253%
same,Difference % (iBead MFI vs regular bead MFI),[35],0%
same,Difference % (iBead MFI vs regular bead MFI),[36],42%
same,Difference % (iBead MFI vs regular bead MFI),[37],120%
same,Difference % (iBead MFI vs regular bead MFI),[45],189%
same,Difference % (iBead MFI vs regular bead MFI),[38],9%
same,Difference % (iBead MFI vs regular bead MFI),[46],59%
same,Difference % (iBead MFI vs regular bead MFI),[39],0%
same,MFI,[40],1950 MFI
same,MFI,[41],2880 MFI
same,MFI,[42],1190 MFI
IVIg Gamunex-C Lot NKLG1 (antibody),MFI,[1],1510 MFI
same,MFI,[43],2350 MFI
same,MFI,[44],7150 MFI
same,MFI,[2],2400 MFI
same,MFI,[3],3560 MFI
same,MFI,[4],1450 MFI
same,MFI,[5],929 MFI
same,MFI,[6],1140 MFI
same,MFI,[7],2810 MFI
same,MFI,[8],3380 MFI
same,MFI,[10],507 MFI
same,MFI,[11],749 MFI
same,MFI,[12],1710 MFI
same,MFI,[14],2250 MFI
same,MFI,[15],3760 MFI
same,MFI,[16],3410 MFI
same,MFI,[18],6010 MFI
same,MFI,[20],3150 MFI
same,MFI,[21],4460 MFI
same,MFI,[22],3950 MFI
same,MFI,[25],3330 MFI
same,MFI,[26],4470 MFI
same,MFI,[29],3590 MFI
same,MFI,[30],3970 MFI
same,Difference % (iBead MFI vs regular bead MFI),[32],1960%
same,Difference % (iBead MFI vs regular bead MFI),[33],722%
same,Difference % (iBead MFI vs regular bead MFI),[34],243%
same,Difference % (iBead MFI vs regular bead MFI),[36],163%
same,Difference % (iBead MFI vs regular bead MFI),[45],599%
same,Difference % (iBead MFI vs regular bead MFI),[38],112%
same,Difference % (iBead MFI vs regular bead MFI),[46],47%
same,MFI,[40],4660 MFI
same,MFI,[41],6240 MFI
same,MFI,[42],3970 MFI
